Data reported in US20240117334A1, “FACTOR B PROTEASES” (Vertex Pharmaceuticals Incorporated, priority 2021, published 2024).
Substitutions are numbered along the chain they refer to. Names may count otherwise. Like-named read-outs stand apart in the source and are kept apart here. Blank lines part the entries; values can stand above or below the molecule they belong to.

Columns and labels:
[1] = system: EGVD/AE-ACT (SEQ ID NO: 53); assay: Second order rate constant k*app with EGVD/AE-ACT serpin bait; assay type: biochemical
Protocol: Selected chymase-based engineered proteases were tested to measure the activity of these proteases, by using an active site titration method based on reaction with the inhibitory serpin bait, followed by HPLC analysis to quantitate the active fraction. All references in this Example, including Table 9, to engineered proteases are depicted in chymotrypsin numbering. See Table 6 for the chymotrypsin numbering key for the modified protease domain of chymase. The HPLC analysis detects a shift in the measured peak when the serpin bait is present, an indication that the protease is binding the bait and therefore active. Briefly, a working concentration of 24 μM of serpin bait was prepared from stock solution, with 50 μM of low molecular weight heparin for antithrombin (AT)-based baits. Protease solutions were prepared by using 30 μL of a 5 μM working solution. Reaction mixtures were incubated for 2 hours at 37° C., and each reaction mixture (protease alone or protease with bait) was analyzed by HPLC using standard protocols. All protease alone samples were run first, then followed by the protease with serpin bait samples. A summary of the results for the proteases tested is summarized in Table 9 below. kcat/Km was measured using EGVD/AE-QF (SEQ ID NO: 52) and second order rate constant K*app was measured using EGVD/AE-ACT (SEQ ID NO: 53).

Human Factor B = Human Factor B (Homo sapiens, UniProt P00751); assay: Human Factor B cleavage EC50 in 80% human plasma (Table 10A); assay type: biochemical
Sequence of Human Factor B (P00751 26-764): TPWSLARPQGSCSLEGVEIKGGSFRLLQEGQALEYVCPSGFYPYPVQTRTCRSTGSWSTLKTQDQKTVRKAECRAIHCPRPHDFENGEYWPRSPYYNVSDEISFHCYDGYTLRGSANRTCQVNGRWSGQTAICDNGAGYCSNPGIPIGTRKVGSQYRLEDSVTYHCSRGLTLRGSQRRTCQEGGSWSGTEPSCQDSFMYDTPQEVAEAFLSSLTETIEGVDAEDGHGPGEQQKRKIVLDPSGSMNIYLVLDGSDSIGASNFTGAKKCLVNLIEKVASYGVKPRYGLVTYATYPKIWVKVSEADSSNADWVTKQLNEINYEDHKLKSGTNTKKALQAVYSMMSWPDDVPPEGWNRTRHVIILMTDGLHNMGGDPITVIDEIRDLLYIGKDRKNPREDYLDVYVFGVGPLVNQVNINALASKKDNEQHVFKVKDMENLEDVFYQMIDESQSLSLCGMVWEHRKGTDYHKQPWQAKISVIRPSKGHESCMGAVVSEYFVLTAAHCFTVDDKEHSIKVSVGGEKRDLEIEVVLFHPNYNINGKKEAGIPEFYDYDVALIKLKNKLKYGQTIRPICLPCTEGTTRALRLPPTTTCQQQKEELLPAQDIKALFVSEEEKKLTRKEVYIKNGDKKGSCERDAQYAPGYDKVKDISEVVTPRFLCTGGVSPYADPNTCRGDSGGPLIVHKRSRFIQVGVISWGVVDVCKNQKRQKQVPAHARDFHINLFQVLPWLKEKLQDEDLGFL
Protocol: Cleavage of Factor B by various engineered proteases was evaluated. Engineered chymase-, MTSP-1-, and uPA-based proteases were tested. All references in this Example, including Tables 10A, 10B, 11A, and 11B, to engineered proteases are depicted in chymotrypsin numbering. The chymotrypsin numbering key for the modified protease domains of engineered proteases are found in Tables 2, 4, and 6 for uPA, MTSP-1, and chymase, respectively. These experiments were also performed to evaluate the stability of non-naturally occurring chymases in various media, including cynomolgus monkey vitreous humor, human plasma, and phosphate buffered saline (PBS). Briefly, Factor B was diluted into an assay buffer and incubated at 37° C. with naturally occurring (wild type) and non-naturally occurring (engineered) proteases in vitreous humor, plasma, or PBS, and the reactions were quenched with HCl at various time points. The time points tested for chymase include T=0 which used 6 hours pre-incubation, T=2 hours which used 4 hours pre-incubation, T=4 hours which used 2 hours pre-incubation, and T=6 hours which used 0 hours pre-incubation. Assaying of the sample was performed with ELISA, or alpha screen for human C3 cleavage, using standard protocols.
A summary of the results is presented in Tables 10A-10B below, showing the various tested proteases, the concentration of the protease used in nM and the EC50 of human Factor B cleavage. Table 10 presents human Factor B cleavage by various non-naturally occurring chymase-based engineered proteases, tested in 80% human plasma, compared against a chymase comprising the mutation string […]. Blank cells indicate that a test was not performed for a particular protease mutation string.

[2] = Second order rate constant (k*) for inhibition by plasma, extrapolation of half-life in 100% plasma; assay type: in vitro ADME
Protocol: Briefly, a baseline chymase having the modifications C22S/A226R was used. The concentration of the baseline chymase and the tested chymase-based engineered proteases, listed in Table 11B below, were used at 50 nM, and another tested chymase C22S/L99R/F173Y/K192R/S218L/A226R was used at 25 nM. For the baseline chymase, a time course of protease activity in the presence of plasma was measured using 4.2 uM CPQ2-ITLLSA-K(5FAM)-K-PEG8-K(biotin)-NH2 (SEQ ID NO: 17)/21 uM Neutravidin at 37° C.

serpins = assay: Serpin inhibition tests of chymase-based engineered proteases; assay type: biochemical
Protocol: Inhibition tests were carried out using chymase-based engineered proteases. Various serpins, which are capable of inhibiting protease activity, were used to test whether these could be used for adequate inhibition of the tested chymase-based engineered proteases, to enable selection of an engineered protease resistant to inhibition in plasma. All references in this Example to engineered proteases are depicted in chymotrypsin numbering. The chymotrypsin numbering key for the modified protease domains of engineered proteases are found in Tables 2, 4, and 6 for uPA, MTSP-1, and chymase, respectively.

[3] = Half-life in 50% human plasma of chymase-based engineered proteases; assay type: in vitro ADME; conditions: EGVD′AE substrate
Protocol: Table 10B presents human Factor B cleavage by various engineered chymase-, MTSP-1-, or uPA-based proteases, tested in mouse or human plasma. For ELISA analysis of Factor B cleavage, briefly, anti-Ba was used, and Bb was detected with anti-Bb. A dynamic range of 25-1600 pM was used. Half-life in 50% human plasma was also calculated for various chymase-based engineered proteases.

[4] = system: Factor B depleted human serum spiked with human Factor B, rabbit or chicken RBCs; assay: Factor B add-back hemolysis assay; assay type: biochemical; conditions: MTSP-1 scaffold, read-out: Hu fB Add-Back EC50
Protocol: Hemolysis assays were performed to evaluate the hemolytic activity of various lots of Factor B, a lot obtained from CompTech as compared to a lot expressed in-house. Briefly, Factor B depleted human serum was used, and plasma purified or recombinant human Factor B was used for the add-back. Rabbit red blood cells (RBCs) or chicken RBCs were washed in GVB/Mg/EGTA, and the depleted serum was spiked with Factor B. The RBC lysis was then monitored with CVF/FD/human Factor B convertase. These were analyzed to create standard curves from which the Factor B lots were compared. FIGS. 5-6 depict a bar graph of controls used for the hemolysis assay and the standard curves measured from the tested engineered proteases from the Factor B add-back hemolysis assay, respectively. […] This engineered protease was tested at two concentrations (samples 1 and 2). All references in this Example to engineered proteases are depicted in chymotrypsin numbering. The chymotrypsin numbering key for the modified protease domains of engineered proteases are found in Tables 2, 4, and 6 for uPA, MTSP-1, and chymase, respectively.

[5] = chymase-based engineered proteases, no plasma stated, read-out: fB Cleavage EC50
[6] = read-out: fB Cleavage, 80% plasma EC50, chymase-based, 80% human plasma
[7] = Plasma Inhibitor: plasma antichymotrypsin (plasma ACT)

EC50 (Human Factor B; [5]): 4.16 µM
B2: C22S/V138L/S189T/A190G/A226R (protein, listed as Homo sapiens)
chain: IIGGTESKPHSRPYMAYLEIVTSNGPSKFCGGFLIRRNFVLTAAHCAGRSITVTLGAHNITEEEDTWQKLEVIKQFRHPKYNTSTLHHDIMLLKLKEKASLTLAVGTLPFPSQFNFVPPGRMCRLAGWGRTGVLKPGSDTLQEVKLRLMDPQACSHFRDFDHNLQLCVGNPRKTKTGFKGDSGGPLLCAGVAQGIVSYGRSDAKPPRVFTRISHYRPWINQILQAN

EC50 (Human Factor B; [5]): 7.13 µM
B4: C22S/V138I/L160V/S189T/A226R (protein, listed as Homo sapiens)
chain: B2 chain with L125I, L146V, G177A

EC50 (Human Factor B; [5]): 4.42 µM
B9: C22S/V138A/S189T/A226R (protein, listed as Homo sapiens)
chain: B2 chain with L125A, G177A

EC50 (Human Factor B; [5]): 1.77 µM
B10: C22S/V138A/S189T/A226R/F228M (protein, listed as Homo sapiens)
chain: B2 chain with L125A, G177A, F209M

EC50 (Human Factor B; [5]): 2.98 µM
B11: C22S/V138S/S189T/A226R/F228M (protein, listed as Homo sapiens)
chain: B2 chain with L125S, G177A, F209M

EC50 (Human Factor B; [5]): 3.48 µM
B12: C22S/V138L/A226R (protein, listed as Homo sapiens)
chain: B2 chain with T176S, G177A

EC50 (Human Factor B; [5]): 6.71 µM
B15: C22S/V138T/A190S/V213A/A226R (protein, listed as Homo sapiens)
chain: B2 chain with L125T, T176S, G177S, V196A

kapp (serpins; [7]): 31166 M⁻¹ s⁻¹
B17: C22S: chymase-based engineered protease, chymotrypsin numbering (protein, listed as Homo sapiens)
chain: B2 chain with L125V, T176S, G177A, R207A
k*app EGVD/AE-ACT (SEQ ID NO: 53) [1]: 30.2

More lines, now with the values behind:

B1: C22S/A226R: chymase-based engineered protease, baseline chymase (protein, listed as Homo sapiens)
chain: B2 chain with L125V, T176S, G177A
k*app EGVD/AE-ACT (SEQ ID NO: 53) [1]: 77
fB Cleavage, 80% plasma EC50 (nM) (Human Factor B; chymase-based, 80% human plasma): none
calculated t1/2 (in 100% plasma) ([2]; extrapolated from k*): 1.58 min
k* ([2]; inhibition by plasma, 37° C.): 7.32E−5 %^−1s^−1
kapp (serpins; Plasma Inhibitor: ACT): 1045 M⁻¹ s⁻¹
kapp (serpins; Plasma Inhibitor: alpha-2-marcroglobin (A2M)): 812 M⁻¹ s⁻¹

B3: C22S/D175N/A226R (protein, listed as Homo sapiens)
chain: B2 chain with L125V, D159N, T176S, G177A
EC50 (Human Factor B; [5]): 0.564 µM
EC50 (Human Factor B; [6]): 7.77 µM
t1/2 in 50% human plasma (min) (EGVD′AE)(SEQ ID NO: 13) [3]: 6.2 min

B5: F41V/L99H/G151V/F173Y/Y215K/R217G/A226R: chymase-based engineered protease (protein, listed as Homo sapiens)
chain: B2 chain with S7C, F29V, L86H, L125V, G137V, F157Y, T176S, G177A, Y198K, R200G
k*app EGVD/AE-ACT (SEQ ID NO: 53) [1]: 649

B6: C22S/F173Y/A226R (protein, listed as Homo sapiens)
chain: B2 chain with L125V, F157Y, T176S, G177A
EC50 (Human Factor B; [5]): 0.65 µM
EC50 (Human Factor B; [6]): 21 µM
t1/2 in 50% human plasma (min) (EGVD′AE)(SEQ ID NO: 13) [3]: 5.9 min

B7: C22S/F173L/Y215H/A226R (protein, listed as Homo sapiens)
chain: B2 chain with L125V, F157L, T176S, G177A, Y198H
EC50 (Human Factor B; [5]): 5.99 µM

B8: C22S/V138A/G145D/S189T/A190S/A226R (protein, listed as Homo sapiens)
chain: B2 chain with L125A, G132D, G177S
EC50 (Human Factor B; [5]): 3.81 µM

B13: C22S/A226R/F228A (protein, listed as Homo sapiens)
chain: B2 chain with L125V, T176S, G177A, F209A
EC50 (Human Factor B; [5]): 5.07 µM

B14: C22S/V138A/A226R (protein, listed as Homo sapiens)
chain: B2 chain with L125A, T176S, G177A
EC50 (Human Factor B; [5]): 2.94 µM

B16: C22S/A190S/A226R (protein, listed as Homo sapiens)
chain: B2 chain with L125V, T176S, G177S
t1/2 in 50% human plasma (min) (EGVD′AE)(SEQ ID NO: 13) [3]: 4.2 min
kapp (serpins; [7]): 1599 M⁻¹ s⁻¹

B18: C22S/A220S/A226R (protein, listed as Homo sapiens)
chain: B2 chain with L125V, T176S, G177A, A203S
EC50 (Human Factor B; [5]): 5.56 µM

B19: C22S/S218I/A226R (protein, listed as Homo sapiens)
chain: B2 chain with L125V, T176S, G177A, S201I
EC50 (Human Factor B; [5]): 0.83 µM
t1/2 in 50% human plasma (min) (EGVD′AE)(SEQ ID NO: 13) [3]: 7.8 min

B20: MTSP-1 (protein, listed as Homo sapiens)
chain: VVGGTDADEGEWPWQVSLHALGQGHICGASLISPNWLVSAAHCYIDDRGFRYSDPTQWTAFLGLHDQSQRSAPGVQERRLKRIISHPFFNDFTFDYDIALLELEKPAEYSSMVRPICLPDASHVFPAGKAIWVTGWGHTQYGGTGALILQKGEIRVINQTTCENLLPQQITPRMMCVGFLSGGVDSCQGDSGGPLSSVEADGRIFQAGVVSWGDGCAQRNKPGVYTRLPLFRDWIKENTGV
EC50 ([4]; [Protease]high 400 nM): 0.0322 µM
EC50 ([4]; [Protease]high 4000 nM): 0.0373 µM
